Results on four molecules are retold here after paper PMC3299411 (Molecular Cell, 2011).

Holding throughout (assay): cross-linking
In series [1] the target is H3 (Drosophila (endogenous in S2 cells)) (UniProt P02299).
Series [2] addresses T1, endogenous CID (Drosophila (endogenous in S2 cells)), Q9V6Q2.
T1 chain: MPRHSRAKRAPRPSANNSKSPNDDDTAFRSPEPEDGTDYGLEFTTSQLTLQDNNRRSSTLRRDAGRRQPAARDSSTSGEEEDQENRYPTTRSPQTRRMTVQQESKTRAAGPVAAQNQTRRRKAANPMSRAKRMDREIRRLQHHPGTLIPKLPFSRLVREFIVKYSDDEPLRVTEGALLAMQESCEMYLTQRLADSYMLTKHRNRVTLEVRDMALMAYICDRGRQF
Conditions: remark: other sources report otherwise.

The series “cross-linking” concerns the molecule itself.
The target of series [3] is T2, FLAG-CID (N-terminally FLAG-tagged CID, wild type) (Drosophila), Q9V6Q2.
T2 chain: T1 chain
Conditions: remark: other sources report otherwise.

Numbering of substitutions follows the chain as printed. Numbers in names are those of the source.

The term stoichiometry N denotes the number of molecules, sites or subunits per partner or assembly. As for “H3 (from UniProt P02299 1-136) (natural protein)”, in series [1], the stoichiometry N is 2.

B1: endogenous CID, Q9V6Q2 1-225 (natural protein)
chain: T1 chain
Take B1: the stoichiometry N in series [2] was 2.

B2: FLAG-CID^D211A (natural protein, Drosophila, UniProt Q9V6Q2 1-225, looked up)
chain: T1 chain with D211A
In the case of B2, the “ratio dimer:monomer after crosslinking” value in “cross-linking” is below 3.

B3: FLAG-CID (N-terminally FLAG-tagged CID, wild type), Q9V6Q2 1-225 (natural protein)
chain: T1 chain
For the molecule B3, in series [3], the ratio dimer:monomer after crosslinking was above 55 and the stoichiometry N is 2.
